This is an account of results in article PMC7090928.

Test [1] concerns the target mCherry-EB3 full length (UniProt Q9UPY8).
Test [2] has the same target. The source holds these as a separate data set.
Test [3] concerns the target dynamic microtubules (porcine brain tubulin) (porcine). The test is described as follows: speed of membrane tube spreading on microtubules compared with a one-step model; His-GFP-MTLS bound to GUV membrane, no EB3; the attachment rate was chosen by comparing model curves for 8, 16 and 26 s^-1 with experimental data.
The target in test [4] is mCherry-EB3 full length (UniProt Q9UPY8). In words: fluorescence correlation spectroscopy; 15 nM His-GFP-MTLS and 200 nM EB3 on dynamic MTs, no GUVs; peak intensity at passing MT tips against solution; 60 sites assumed in 6 dimer lengths, 1:1 EB3:MTLS assumed.
Test [5] has the same target. In words: single-molecule TIRF microscopy (dwell times and binding events on microtubules); 0.12 nM His-GFP-MTLS, 50 ms/frame, 200 nM mCherry-EB3 as tracer of plus ends; dwell times fitted with an exponential; MT tip taken as 200 nm long.

Chain of UniProt Q9UPY8 (Q9UPY8 whole entry): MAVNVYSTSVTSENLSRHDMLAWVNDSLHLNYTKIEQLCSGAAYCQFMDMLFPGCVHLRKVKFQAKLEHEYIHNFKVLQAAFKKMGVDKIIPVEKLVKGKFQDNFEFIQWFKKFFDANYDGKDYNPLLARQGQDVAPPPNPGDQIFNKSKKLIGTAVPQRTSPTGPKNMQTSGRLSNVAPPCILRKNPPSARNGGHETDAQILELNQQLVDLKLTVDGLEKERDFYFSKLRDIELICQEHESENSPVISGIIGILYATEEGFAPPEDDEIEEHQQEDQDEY
Chain of dynamic microtubules (porcine brain tubulin) (porcine) (P68363 whole entry, chain 1 of 2): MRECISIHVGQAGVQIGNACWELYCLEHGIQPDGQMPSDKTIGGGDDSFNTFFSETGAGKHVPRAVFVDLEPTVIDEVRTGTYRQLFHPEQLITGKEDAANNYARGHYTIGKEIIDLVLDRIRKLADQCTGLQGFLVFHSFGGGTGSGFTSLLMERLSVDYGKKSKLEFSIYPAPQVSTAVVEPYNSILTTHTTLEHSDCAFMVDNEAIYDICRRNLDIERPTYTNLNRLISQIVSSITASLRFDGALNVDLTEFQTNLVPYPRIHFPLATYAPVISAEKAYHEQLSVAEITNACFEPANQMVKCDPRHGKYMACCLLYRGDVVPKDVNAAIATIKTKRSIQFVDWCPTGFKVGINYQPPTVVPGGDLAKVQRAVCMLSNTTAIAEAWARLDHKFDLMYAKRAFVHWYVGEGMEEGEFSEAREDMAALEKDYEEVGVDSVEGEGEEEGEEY
Chain of dynamic microtubules (porcine brain tubulin) (porcine) (P02554 whole entry, chain 2 of 2, further chain): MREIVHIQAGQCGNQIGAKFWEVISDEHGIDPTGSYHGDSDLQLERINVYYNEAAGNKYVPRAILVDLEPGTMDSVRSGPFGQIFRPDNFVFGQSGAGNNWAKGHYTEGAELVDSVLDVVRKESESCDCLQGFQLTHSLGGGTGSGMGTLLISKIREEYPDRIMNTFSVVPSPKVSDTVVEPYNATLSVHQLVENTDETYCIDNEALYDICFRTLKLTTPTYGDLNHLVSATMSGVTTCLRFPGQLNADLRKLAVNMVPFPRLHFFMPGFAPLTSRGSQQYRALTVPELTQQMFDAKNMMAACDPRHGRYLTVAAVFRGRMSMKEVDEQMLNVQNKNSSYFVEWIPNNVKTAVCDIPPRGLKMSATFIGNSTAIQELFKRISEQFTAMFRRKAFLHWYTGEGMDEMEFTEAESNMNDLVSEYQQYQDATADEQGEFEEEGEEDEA

Substance “Bio-mCherry-MTLS (from UniProt Q03001 7528-7570)” had a duration of the first positive displacement of Bio-mCherry-MTLS-coated beads at growing MT tips with 100 nM EB3 (most events shorter than 1 s without EB3) with mCherry-EB3 full length [1] of 15 s.
Take “His-GFP-MTLS (from UniProt Q03001 7528-7570)”: the tubulation of GUVs on dynamic MTs at 200 nM EB3 and 15 nM His-GFP-MTLS with mCherry-EB3 full length [2] amounted to 90%. In addition, the k on-m (estimated attachment rate of membrane-bound His-GFP-MTLS to the MT lattice, no EB3) in test [3] was 16 s⁻¹. In the test with mCherry-EB3 full length [4], the maximum probability of being bound to the EB3-bound MT tip came to 0.46. For the same substance, in the test with mCherry-EB3 full length [5], the fold association rate at MT tips (with 200 nM mCherry-EB3) over the on-rate at the MT shaft came out at 2.5 fold.
